From US20240279318A1 (NANJING LEGEND BIOTECH, published 2024)
Numbering of substitutions follows the chain as printed.

B1: AS170036 VL1VH1 (scFv)
scFv: QSALTQPRSVSGSPGQSVTISCAGTSSDVGSENYVSWYQQHPGKAPKLMIYQVNKRASGVPDRFSGSKSGNTASLTISGLQAEDEADYYCASYRSSDHNIVFGGGTKLTVLGGGGSGGGGSGGGGSEVQLVESGGGLVQPGGSLRLSCAASGFTFSSYAMSWVRQAPGKGLEWVSTINSGTGSPYYADSVKGRFTISRDNSKNTLYLQMNSLRAEDTAVYYCAKNFFDGSWFLGPPAMDYWGQGTLVTVSSHHHHHH
notes: Crude scFv from E. coli TG1 supernatant; also called AS170036 VL1VH1 scFv
B2: AS170036 VL1VH1-VHG108S (scFv)
scFv: B1 scFv with G234S
B3: AS170036 VL1VH1-VHS57H (scFv)
scFv: B1 scFv with S183H
B4: AS170036 VL1VH1-VHS57K (scFv)
scFv: B1 scFv with S183K
B5: AS170036 VL1VH1-VHS57M (scFv)
scFv: B1 scFv with S183M
B6: AS170036 VL1VH1-VHS57Q (scFv)
scFv: B1 scFv with S183Q
B7: AS170036 VL1VH1-VHS57R (scFv)
scFv: B1 scFv with S183R
B8: AS170036 VL1VH1-VLE32W (scFv)
scFv: B1 scFv with E32W
B9: AS170036 VL1VH1-VLH98A (scFv)
scFv: B1 scFv with H98A
B10: AS170036 VL1VH1-VLH98F (scFv)
scFv: B1 scFv with H98F
B11: AS170036 VL1VH1-VLH98I (scFv)
scFv: B1 scFv with H98I
B12: AS170036 VL1VH1-VLH98P (scFv)
scFv: B1 scFv with H98P
B13: AS170036 VL1VH1-VLH98Q (scFv)
scFv: B1 scFv with H98Q
B14: AS170036 VL1VH1-VLH98T (scFv)
scFv: B1 scFv with H98T
B15: AS170036 VL1VH1-VLH98V (scFv)
scFv: B1 scFv with H98V
B16: AS167821 sdAb-mIgG2aFc (Fc fusion, not shown: a dimerising Fc or GST)
chain: QVRLVESGGGSVQAGGSLRLSCAASGRTYSTYCMGWFRQAPGKEREGVATIYIGSGRTYYVDSVKGRFTISQDNAKNTLYLQMNNLKPEDTAMYYCTADVDPYESSWSRGLGYWGQGTQVTVSS
notes: i647-labelled for flow cytometry
B17: AS170036 VL1VH1 (scFv)
scFv: B1 scFv
notes: Crude scFv from E. coli TG1 supernatant, captured on the chip; also called AS170036 VL1VH1 scFv
B18: 03-AS170036 VL1VH1-56Y98Q (scFv)
scFv: B1 scFv with H98Q, G182Y
notes: Crude scFv mutein of AS170036 VL1VH1
B19: 05-AS170036 VL1VH1-56N98I (scFv)
scFv: B1 scFv with H98I, G182N
notes: as for B18
B20: 10-AS170036 VL1VH1-57K98F (scFv)
scFv: B1 scFv with H98F, S183K
notes: as for B18
B21: 15-AS170036 VL1VH1-57M98Q (scFv)
scFv: B1 scFv with H98Q, S183M
notes: as for B18
B22: 16-AS170036 VL1VH1-56Y108A (scFv)
scFv: B1 scFv with G182Y, G234A
notes: as for B18
B23: 19-AS170036 VL1VH1-56N108A (scFv)
scFv: B1 scFv with G182N, G234A
notes: as for B18
B24: 22-AS170036 VL1VH1-57H108A (scFv)
scFv: B1 scFv with S183H, G234A
notes: as for B18
B25: 25-AS170036 VL1VH1-57K108A (scFv)
scFv: B1 scFv with S183K, G234A
notes: as for B18
B26: 27-AS170036 VL1VH1-57K108S (scFv)
scFv: B1 scFv with S183K, G234S
notes: as for B18
B27: 34-AS170036 VL1VH1-98I108A (scFv)
scFv: B1 scFv with H98I, G234A
notes: as for B18
B28: 40-AS170036 VL1VH1-56Y98F108A (scFv)
scFv: B1 scFv with H98F, G182Y, G234A
notes: as for B18
B29: 42-AS170036 VL1VH1-56Y98F108S (scFv)
scFv: B1 scFv with H98F, G182Y, G234S
notes: as for B18
B30: 43-AS170036 VL1VH1-56Y98I108A (scFv)
scFv: B1 scFv with H98I, G182Y, G234A
notes: as for B18
B31: 45-AS170036 VL1VH1-56Y98I108S (scFv)
scFv: B1 scFv with H98I, G182Y, G234S
notes: as for B18
B32: 48-AS170036 VL1VH1-56Y98Q108S (scFv)
scFv: B1 scFv with H98Q, G182Y, G234S
notes: as for B18
B33: 49-AS170036 VL1VH1-56N98F108A (scFv)
scFv: B1 scFv with H98F, G182N, G234A
notes: as for B18
B34: 67-AS170036 VL1VH1-57K98F108A (scFv)
scFv: B1 scFv with H98F, S183K, G234A
notes: as for B18
B35: 70-AS170036 VL1VH1-57K98I108A (scFv)
scFv: B1 scFv with H98I, S183K, G234A
notes: as for B18
B36: 75-AS170036 VL1VH1-57K98Q108S (scFv)
scFv: B1 scFv with H98Q, S183K, G234S
notes: as for B18
B37: 82-AS170036 VL1VH1-57M98Q108A (scFv)
scFv: B1 scFv with H98Q, S183M, G234A
notes: as for B18

target: T1, AFP158/HLA-A*02:01 complex (human); assay: SPR, fold vs AS170036 VL1VH1
T1 construct: flowed as analyte in SPR
Experimental: (§1) The experiment was carried out as follows. The crude scFv protein were captured onto the sensorchip. Different concentrations (320, 160, 40 nM) of AFP158/HLA-A*02:01 complex flowed over the sensorchip surface, and were allowed to bind the antibody fragment for 100 s followed by injection of the running buffer to allow dissociation of the complex. On-rate (kd) and off-rate (kd) were calculated based on association and dissociation curve, and were used to estimate the equilibrium dissociation constant (KD).
(§2) The crude scFv muteins were then subjected to SPR affinity measurement by the method mentioned above.

| Binder | Affinity increase [fold] |
| --- | --- |
| B1 | 1 |

target: T1, AFP158/HLA-A*02:01 complex; assay: SPR, fold vs AS170036 VL1VH1; remark: another data set of the same source
Experimental: as §1

| Binder | Affinity increase [fold] |
| --- | --- |
| B1 | 1 |
| B2 | 2.8 |
| B3 | 6.9 |
| B4 | 4.4 |
| B5 | 2.7 |
| B6 | 2.4 |
| B7 | 2.8 |
| B8 | 2.4 |
| B9 | 2.3 |
| B10 | 3.3 |
| B11 | 3.1 |
| B12 | 3.5 |
| B13 | 3.3 |
| B14 | 2.9 |
| B15 | 3.2 |

target: T1, AFP158/HLA-A*02:01 complex; assay: SPR, crude scFv captured, pMHC analyte
Experimental: as §1

| Binder | Kd [nM] | koff [s⁻¹] | kon [M⁻¹ s⁻¹] |
| --- | --- | --- | --- |
| B1 | 270 | 0.1 | 380000 |
| B2 | 96 | 0.026 | 270000 |
| B3 | 35 | 0.0061 | 170000 |
| B4 | 56 | 0.0081 | 150000 |
| B5 | 90 | 0.025 | 280000 |
| B6 | 100 | 0.022 | 210000 |
| B7 | 88 | 0.017 | 200000 |
| B8 | 100 | 0.016 | 150000 |
| B9 | 110 | 0.027 | 260000 |
| B10 | 74 | 0.033 | 450000 |
| B11 | 78 | 0.018 | 230000 |
| B12 | 70 | 0.017 | 240000 |
| B13 | 75 | 0.016 | 220000 |
| B14 | 84 | 0.025 | 290000 |
| B15 | 78 | 0.018 | 230000 |

target: T1, AFP158/HLA-A*02:01 complex; assay: SPR, crude scFv captured, pMHC analyte; remark: another data set of the same source

| Binder | Kd [nM] | koff [s⁻¹] | kon [M⁻¹ s⁻¹] |
| --- | --- | --- | --- |
| B1 | 230 | 0.11 | 490000 |

target: T1, AFP158/HLA-A*02:01 complex; assay: SPR, crude scFv captured, pMHC analyte; remark: another data set of the same source

| Binder | Kd [nM] | koff [s⁻¹] | kon [M⁻¹ s⁻¹] |
| --- | --- | --- | --- |
| B1 | 230 | 0.11 | 490000 |

target: T2, AFP158/HLA-A*02:01 complex (human); assay: SPR, antibody captured via mIgG2a-Fc, complex as analyte
T2 construct: biotinylated on the BSP by BirA for ELISA and panning; also called biotinylated AFP158/HLA-A*02:01 complex; Bio-AFP158
Experimental: The binding affinity between selected antibodies and AFP158/HLA-A*02:01 complex was determined by surface plasmon resonance (SPR) on a BIAcore T200 instrument (GE Healthcare). The experiment was carried out as follows. The purified sdAb/scFv-mIgG2aFc protein were captured through mIgG2a-Fc onto the sensorchip. […] On-rate (kₐ) and off-rate (kd) were calculated based on association and dissociation curve, and were used to estimate the equilibrium dissociation constant (KD).

| Binder | Kd [nM] | koff [s⁻¹] | kon [M⁻¹ s⁻¹] |
| --- | --- | --- | --- |
| B16 | 95 | 0.039 | 410000 |

target: T3, AFP158/HLA-A*02:01 complex (human); assay: SPR (BIAcore T200), crude scFv captured, complex flowed over
T3 construct: flowed over the chip as analyte; also called AFP158 peptide/HLA-A*02:01 complex
Experimental: as §1
The 84 muteins were then tested for their selectivity. The 12 recombinant AFP158 homologous peptides/HLA-A*02:01 complex were mixed in three groups (group 1: ZNF566 and ARNTL, group 2: CDC14A, PTP4A1, BRCA2 and RCL1, group 3: OR1I1, OR51B6, OR6C1, ATG9A, RP1 and NR2E1). The binding of the 84 antibodies to these complexes were then measured by method described above.

| Binder | SPR binding level [RU] |
| --- | --- |
| B17 | 196 |
| B18 | 738 |
| B19 | 564 |
| B20 | 614 |
| B21 | 554 |
| B22 | 601 |
| B23 | 526 |
| B24 | 571 |
| B25 | 554 |
| B26 | 627 |
| B27 | 559 |
| B28 | 587 |
| B29 | 682 |
| B30 | 664 |
| B31 | 689 |
| B32 | 817 |
| B33 | 604 |
| B34 | 686 |
| B35 | 807 |
| B36 | 819 |
| B37 | 662 |

target: T1, AFP158/HLA-A*02:01 complex; assay: SPR, fold vs AS170036 VL1VH1; remark: another data set of the same source
Experimental: as §1, §2

| Binder | Affinity increase [fold] |
| --- | --- |
| B1 | 1 |
